Molecular target: taxol-stabilized microtubules (porcine brain tubulin) (porcine) (UniProt P02550)
Experiment: co-sedimentation

Kd [µM]	Substance
1.6	chick Fmn2 FH2FSI (1148th-1587th aa) (from UniProt A0A1B2VWD2 1148-1587) (domain or fragment)
18.6	chick Fmn2 FH2_ΔFSI (1148th-1563rd aa) (from UniProt A0A1B2VWD2 1148-1563) (domain or fragment)

From article doi:10.1101/2020.01.18.911131
